Assay results reported in patent US20210253713A1 (ABEXXA BIOLOGICS, published 2021).

Key:
[1] = target: T1, HLA-E/… (human, UniProt P13747 22-297; P61769 21-119, limits assumed); assay: ELISA, biotin-labeled complex on neutravidin plates, soluble bivalent IgG1, anti-human-HRP
T1 construct: Biotin-labeled control complex captured on neutravidin plates through a C-terminal BirA tag; also called control HLA-E/peptide complex
Experimental: (§1) To further evaluate the binding specificity and detection sensitivity of MAB-031 and MAB-036, a second ELISA was performed. For this assay, neutravidin coated plates were used to capture biotin-labeled HLA-E/peptide complexes. Because the HLA-E/peptide complexes have a single biotin molecule conjugated to the c-terminal end BirA tag, the immobilization of these complexes results in having the molecules lined up in a homogenous directional orientation. After incubation, unbound biotin-labeled HLA-E/peptide complexes are removed by rinsing the plate in a PBS+tween-20 buffer solution. MAB31 and MAB36 were then added to wells at concentrations that ranged from 1 ug/ml to 0.0001 ug/ml. Incubation was carried out for 1 hr, wells were rinsed and bound MAB was detected using a 1:2500 dilution of a goat anti-human-HRP conjugate. The assay was developed by adding the TMB substrate solution was added to wells and developed for 10 min before adding stop solution to terminate the reaction.

[2] = target: T2, HLA-E/… (human, UniProt P13747 22-297; P61769 21-119, limits assumed); assay: as above
T2 construct: Biotin-labeled control complex, used in both ELISA formats; also called control HLA-E/peptide complex
Experimental: as §1

[3] = target: T3, HLA-E/… (human, UniProt P13747 22-297; P61769 21-119, limits assumed); assay: as above; remark: listed apart in the source
T3 construct: Biotin-labeled control complex captured on neutravidin plates through a C-terminal BirA tag; also called control HLA-E/peptide complex
Experimental: as §1

[4] = target: T4, HLA-E/… (human, UniProt P13747 22-297; P61769 21-119, limits assumed); assay: as above; remark: listed apart in the source
T4 construct: Biotin-labeled control complex captured on neutravidin plates through a C-terminal BirA tag; also called control HLA-E/peptide complex
Experimental: as §1

[5] = target: T5, HLA-E/… (human, UniProt P13747 22-297; P61769 21-119, limits assumed); assay: as above; remark: listed apart in the source
T5 construct: Biotin-labeled control complex captured on neutravidin plates through a C-terminal BirA tag; also called control HLA-E/peptide complex
Experimental: as §1

[6] = target: T6, HLA-E/… (human, UniProt P13747 22-297; P61769 21-119, limits assumed); assay: ELISA, antibody captured on Protein-A wells, soluble biotin-labeled HLA-E/peptide complex, SA-HRP
T6 construct: Soluble biotin-labeled control complex; also called control HLA-E/peptide complex
Experimental: (§2) The isolated scFv VL and VH domains were cloned into pFUSE-hIgG1-Fc and pFUSE2-CLIg-hk plasmids, respectively and plasmid DNA was prepared using standard protocol and used to co-transfect a 200 ml culture of Expi-293 cells. Following the manufacturer's instructions, supernatants were harvested at day 5 post-transfection for antibody purification using Protein-A coated beads. Next, the purified mouse-human chimeric IgG1 antibody, MAB-031 and the fully human antibody, MAB-036 were characterized for binding specificity and sensitivity by ELISA. In brief, Protein-A coated 96-wells were used to capture either MAB-031 or MAB-036 added to wells at a concentration of 10 ug/ml. After incubation for 60 min, wells were washed using PBS (pH 7.4)+0.1% Tween-20 and soluble biotin-labeled HLA-E/peptide complexes were added to individual wells at concentrations ranging from 0.25 to 0.0625 ug/ml. Wells were washed 3× using a solution of PBS+Tween-20 and then streptavidin-Horseradish peroxidase (SA-HRP) conjugate was added to wells and incubated for 30 min. One final wash was done and the substrate solution containing 3,3′,5,5′-tetramethylbenzidine (TMB) was added to wells and developed for 10 min before adding stop solution (0.16M sulfuric acid) to terminate the reaction.

[7] = target: T7, HLA-E/… (human, UniProt P13747 22-297; P61769 21-119, limits assumed); assay: as above; remark: listed apart in the source
T7 construct: Soluble biotin-labeled control complex; also called control HLA-E/peptide complex
Experimental: as §2

Binder	binding result [1]	binding result [2]	binding result [3]	binding result [4]	binding result [5]	binding result [6]	binding result [7]
MAB-031 (anti-HLA-E/…) (antibody, V domains shown, also called MAB31; MAB-31) VH: QVQLQQSGPELVKPGASVKMSCKASGYTFTDYVISWVKQRTGQGLEWIGEIYPGNNTTYYNDNFRGKATLTVDKSSSTAYMQLSSLTSEDSAVYYCARESLGIYYGSTYKGLYAMDYWGQGTTLTVSS VL: QIVLTQSPAIMSASPGEKVTITCSASSSVSYMHWFQQKPGTSPKLWIYSTSNLASGVPARFSGSGSGTSYSLTISRMEAEDAATYYCQQRSSYPPTFGAGTKLELKR	no binding (tested: 1 ug/ml to 0.0001 ug/ml)	no binding (tested: 1 ug/ml to 0.0001 ug/ml)	no binding (tested: 1 ug/ml to 0.0001 ug/ml)	no binding (tested: 1 ug/ml to 0.0001 ug/ml)	no binding (tested: 1 ug/ml to 0.0001 ug/ml)	no binding	no binding
MAB-036 (anti-HLA-E/…) (antibody, V domains shown, Full-length human IgG1 (pFUSE vector system, human kappa); CDRs of R4Clone #1 mutated light chain were grafted onto trastuzumab VH and VL frameworks; also called MAB36) VH: EVQLVESGGGLVQPGGSLRLSCAASGFTFSSYAIHWVRQAPGKGLEWVARIAYGGGATRYADSVKGRFTISADTSKNTAYLQMNSLRAEDTAVYYCAKGLSNFDYWGQGTLVTVSS VL: DIQMTQSPSSLSASVGDRVTITCRASQSISSYLNWYQQKPGKAPKLLIYNAAFLYSGVPSRFSGSRSGTDFTLTISSLQPEDFATYYCQQAATYPATFGQGTKVEIK	no binding (tested: 1 ug/ml to 0.0001 ug/ml)	no binding (tested: 1 ug/ml to 0.0001 ug/ml)	no binding (tested: 1 ug/ml to 0.0001 ug/ml)	no binding (tested: 1 ug/ml to 0.0001 ug/ml)	no binding (tested: 1 ug/ml to 0.0001 ug/ml)	no binding	no binding
